In article PMC4059526 (2014) one finds binding result and Kd data, which are given here for two molecules.

Usually Kd stands for a measure of binding affinity in units of concentration. Read a low Kd as higher affinity.

One data set addresses T1, SNF (sans fille) (Drosophila, UniProt P43332 1-216).
T1 sequence: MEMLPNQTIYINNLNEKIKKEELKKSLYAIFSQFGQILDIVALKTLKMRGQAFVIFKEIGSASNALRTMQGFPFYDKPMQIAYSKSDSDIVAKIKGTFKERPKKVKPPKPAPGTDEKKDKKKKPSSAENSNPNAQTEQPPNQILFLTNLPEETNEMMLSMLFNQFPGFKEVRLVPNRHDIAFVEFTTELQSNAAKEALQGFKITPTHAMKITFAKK
The data set is described as follows: 2-aminopurine fluorescence and CD.

Another data set has as its target T2, SNF (Drosophila melanogaster, UniProt P43332).
T2 chain: T1 sequence

For GGCCGUAUUGCAGUACCGCGGCC (structured_RNA, 2-aminopurine replaces A at position 15 (3'-loop adenine)) [2AP-SLIV], in the data set with SNF (sans fille), the binding result is recorded as “binds”.

B1: U2A' (protein)
chain: MVKLTPELINQSMQYINPCRERELDLRGYKIPQIENLGATLDQFDTIDLSDNDLRKLDNLPHLPRLKCLLLNNNRILRISEGLEEAVPNLGSIILTGNNLQELSDLEPLVGFTKLETICLLINPVSTKPNYREYMAYKFPQLRLLDFRKIKQKDRQAAQEFFRTKQGKDVLKEISRKSKMSAAAAIAAEAGNGKGRGSEGGRLANPQDMQRIREAIKRASSLAEVERLSQILQSGQLPDKFQHEMEAVAQNGAGHNGSGAVAMEY
modifications: SLIV RNA bound
In the data set with SNF, B1 had an equilibrium dissociation constant (Kd) of 4 nM.
